From publication PMC9458432 (Nucleic Acids Research, 2022) come the findings set out here.

In one data set the target is T1, ΔFOSB Cys172Ser homomers (Mus musculus, UniProt P13346, C172S).
T1 sequence (P13346 2-237 isoform P13346-2 C172S): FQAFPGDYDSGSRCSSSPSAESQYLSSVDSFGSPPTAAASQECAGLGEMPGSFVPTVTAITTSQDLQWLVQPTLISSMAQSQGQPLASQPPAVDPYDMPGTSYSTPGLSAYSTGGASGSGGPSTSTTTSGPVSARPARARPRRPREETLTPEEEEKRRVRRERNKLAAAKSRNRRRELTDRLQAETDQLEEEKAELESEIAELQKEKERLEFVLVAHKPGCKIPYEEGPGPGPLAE
The experiment in a line: FP dose-response against ΔFOSB Cys172Ser homomers. It is filed as binding. The settings on record: 50 nM TMR-cdk5, 280 nM protein, compound 0–200 μM.

Data set [1] addresses T2, ΔFOSB Cys172Ser/JUND heterodimers (Mus musculus, UniProt P13346+P15066, C172S).
T2 sequence (P13346 2-237 isoform P13346-2 C172S): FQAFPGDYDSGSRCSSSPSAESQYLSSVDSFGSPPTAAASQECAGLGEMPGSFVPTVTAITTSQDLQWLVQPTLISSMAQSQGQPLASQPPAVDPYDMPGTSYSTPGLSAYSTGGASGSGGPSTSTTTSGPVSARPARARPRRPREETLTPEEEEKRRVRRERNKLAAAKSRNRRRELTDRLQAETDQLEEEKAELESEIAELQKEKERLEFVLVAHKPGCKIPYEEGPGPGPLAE
T2 sequence (P15066 2-341): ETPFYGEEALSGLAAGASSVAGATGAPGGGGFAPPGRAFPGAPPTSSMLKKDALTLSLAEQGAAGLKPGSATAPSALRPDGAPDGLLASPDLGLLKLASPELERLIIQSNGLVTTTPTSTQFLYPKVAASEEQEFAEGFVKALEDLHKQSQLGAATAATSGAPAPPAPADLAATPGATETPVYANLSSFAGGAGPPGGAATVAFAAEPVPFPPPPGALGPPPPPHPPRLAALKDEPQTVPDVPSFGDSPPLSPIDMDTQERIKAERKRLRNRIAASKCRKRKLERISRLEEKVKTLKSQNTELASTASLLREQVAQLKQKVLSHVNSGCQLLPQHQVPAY
The experiment in a line: FP dose-response against ΔFOSB Cys172Ser/JUND heterodimers. The class given is binding. The settings on record: 50 nM TMR-cdk5, 280 nM protein, compound 0–200 μM.

The target of data set [2] is T3, ΔFOSB (N(His)6-ΔFOSB);JUND (N(His)6-JUND) (mouse;mouse, UniProt P13346-2;P15066 2-237;2-341, |).
T3 sequence 1: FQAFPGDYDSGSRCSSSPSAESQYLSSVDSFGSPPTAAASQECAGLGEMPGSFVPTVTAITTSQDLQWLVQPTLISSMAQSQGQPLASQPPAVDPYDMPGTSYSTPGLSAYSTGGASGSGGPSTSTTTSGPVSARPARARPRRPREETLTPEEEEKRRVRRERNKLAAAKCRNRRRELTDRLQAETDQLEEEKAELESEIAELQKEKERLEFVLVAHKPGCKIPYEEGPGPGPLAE
T3 sequence 2: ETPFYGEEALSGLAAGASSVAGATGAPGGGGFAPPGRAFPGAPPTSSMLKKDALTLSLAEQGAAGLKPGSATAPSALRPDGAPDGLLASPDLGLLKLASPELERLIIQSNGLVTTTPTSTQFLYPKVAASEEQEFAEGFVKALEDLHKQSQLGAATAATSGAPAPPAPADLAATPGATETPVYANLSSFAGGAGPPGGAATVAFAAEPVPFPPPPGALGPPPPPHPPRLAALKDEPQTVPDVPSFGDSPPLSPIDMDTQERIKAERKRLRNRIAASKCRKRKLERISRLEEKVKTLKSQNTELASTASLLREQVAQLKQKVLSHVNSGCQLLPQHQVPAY
Nature of the data set: EMSA. On the technique in general: A gel shift assay detects complexes by their altered migration in electrophoresis.

In the next data set the target is T4, ΔFOSB (N(His)6-ΔFOSB) (mouse, UniProt P13346-2 2-237).
T4 sequence: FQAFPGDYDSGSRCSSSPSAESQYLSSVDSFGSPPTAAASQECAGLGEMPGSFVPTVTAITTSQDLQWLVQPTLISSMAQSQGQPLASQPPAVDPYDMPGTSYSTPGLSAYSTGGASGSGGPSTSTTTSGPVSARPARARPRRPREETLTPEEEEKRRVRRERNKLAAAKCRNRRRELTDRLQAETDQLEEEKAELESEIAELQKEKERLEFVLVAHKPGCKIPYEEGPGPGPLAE
Nature of the data set: fluorescence polarization. For orientation: In fluorescence polarisation assays a small probe gives low polarisation when free and higher when bound to something large.

Data set [3] deals with T3, ΔFOSB (N(His)6-ΔFOSB);JUND …. The experiment in a line: fluorescence polarization.
A further data set deals with T5, ΔFOSB Cys172Trp (mouse, UniProt P13346-2 2-237, C172W).
T5 sequence: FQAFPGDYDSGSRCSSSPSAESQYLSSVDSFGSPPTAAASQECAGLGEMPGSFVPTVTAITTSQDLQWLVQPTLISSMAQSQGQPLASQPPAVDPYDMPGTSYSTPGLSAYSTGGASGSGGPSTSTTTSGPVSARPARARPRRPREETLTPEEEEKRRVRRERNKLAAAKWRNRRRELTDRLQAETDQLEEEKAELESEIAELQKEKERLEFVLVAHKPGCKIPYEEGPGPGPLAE
Nature of the data set: fluorescence polarization.

In the case of `O=C(O)CCc1cc(C(=O)c2ccc(OC3CCCC3)cc2O)ccc1OCc1ccc2c(=O)[nH]oc2c1` [Compound T5224], the “Disruption of DNA binding to ΔFOSB Cys172Ser homomers” value on ΔFOSB Cys172Ser homomers was “similarly well as to the wild-type species”. For the same molecule, the “Disruption of DNA binding to ΔFOSB Cys172Ser/JUND heterodimers” value in data set [1] is “similarly well as to the wild-type species”.

B1: BIO-cdk5 (dsDNA)
DNA 1: CGTCGGTGACTCAAAACAC
DNA 2: GTGTTTTGAGTCACCGACG
B1: the binding result in data set [2] is “binds”.

B2: TMR-cdk5 (dsDNA)
DNA 1: CGTCGGTGACTCAAAACAC
DNA 2: GTGTTTTGAGTCACCGACG
As to B2, the binding result (with ΔFOSB (N(His)6-ΔFOSB); in data set [3]; with ΔFOSB Cys172Trp) was “binds” in each case.
